Data: PMC5935067

Molecular target: microtubules polymerised from bovine brain tubulin (bovine), Q6B856
Test: TIRF microscopy, single-molecule dwell-time analysis

- dwell time at growing microtubule tips, with 10 nM EB1: 1.8 s
- dwell time of lattice-binding events, with 10 nM EB1: 0.74 s
- mean dwell time on microtubule tips, without EB1: 0.67 s
- mean dwell time on the microtubule lattice, without EB1: 0.49 s
- tip association rate, with 10 nM EB1: 5.3e+08 M⁻¹ s⁻¹
- tip association rate, without EB1: 2.9e+08 M⁻¹ s⁻¹
B1: His-CLASP2γ-eGFP-StrepII (full-length human CLASP2γ with C-terminal eGFP) (natural protein)
chain: MAMGDDKSFDDEESVDGNRPSSAASAFKVPAPKTSGNPANSARKPGSAGGPKVGGASKEGGAGAVDEDDFIKAFTDVPSIQIYSSRELEETLNKIREILSDDKHDWDQRANALKKIRSLLVAGAAQYDCFFQHLRLLDGALKLSAKDLRSQVVREACITVAHLSTVLGNKFDHGAEAIVPTLFNLVPNSAKVMATSGCAAIRFIIRHTHVPRLIPLITSNCTSKSVPVRRRSFEFLDLLLQEWQTHSLERHAAVLVETIKKGIHDADAEARVEARKTYMGLRNHFPGEAETLYNSLEPSYQKSLQTYLKSSGSVASLPQSDRSSSSSQESLNRPFSSKWSTANPSTVAGRVSAGSSKASSLPGSLQRSRSDIDVNAAAGAKAHHAAGQSVRSGRLGAGALNAGSYASLEDTSDKLDGTASEDGRVRAKLSAPLAGMGNAKADSRGRSRTKMVSQSQPGSRSGSPGRVLTTTALSTVSSGVQRVLVNSASAQKRSKIPRSQGCSREASPSRLSVARSSRIPRPSVSQGCSREASRESSRDTSPVRSFQPLASRHHSRSTGALYAPEVYGASGPGYGISQSSRLSSSVSAMRVLNTGSDVEEAVADALKKPARRRYESYGMHSDDDANSDASSACSERSYSSRNGSIPTYMRQTEDVAEVLNRCASSNWSERKEGLLGLQNLLKNQRTLSRVELKRLCEIFTRMFADPHGKRVFSMFLETLVDFIQVHKDDLQDWLFVLLTQLLKKMGADLLGSVQAKVQKALDVTRESFPNDLQFNILMRFTVDQTQTPSLKVKVAILKYIETLAKQMDPGDFINSSETRLAVSRVITWTTEPKSSDVRKAAQSVLISLFELNTPEFTMLLGALPKTFQDGATKLLHNHLRNTGNGTQSSMGSPLTRPTPRSPANWSSPLTSPTNTSQNTLSPSAFDYDTENMNSEDIYSSLRGVTEAIQNFSFRSQEDMNEPLKRDSKKDDGDSMCGGPGMSDPRAGGDATDSSQTALDNKASLLHSMPTHSSPRSRDYNPYNYSDSISPFNKSALKEAMFDDDADQFPDDLSLDHSDLVAELLKELSNHNERVEERKIALYELMKLTQEESFSVWDEHFKTILLLLLETLGDKEPTIRALALKVLREILRHQPARFKNYAELTVMKTLEAHKDPHKEVVRSAEEAASVLATSISPEQCIKVLCPIIQTADYPINLAAIKMQTKVIERVSKETLNLLLPEIMPGLIQGYDNSESSVRKACVFCLVAVHAVIGDELKPHLSQLTGSKMKLLNLYIKRAQTGSGGADPTTDVSGQS
modifications: not checked
